According to patent US11998613B2, “Antibody-drug conjugates containing an anti-mesothelin antibody and uses thereof” (DEVELOPMENT CENTER FOR BIOTECHNOLOGY, priority 2020, dated 2024):

B1: DCBPR2002: humanized anti-mesothelin antibody, heavy chain variable region SEQ ID NO: 11, light chain variable region SEQ ID NO: 12 (antibody, V domains shown)
VH: QVQLVQSGAEVKKPGASVKVSCKASGYSFTGYTMNWVRQAPGQGLEWMGLITPYNGASSYNQKFRGRVTMTRDTSISTAYMELSRLRSDDTAVYYCARGGYDGRGFDYWGQGTLVTVSS
VL: EIVLTQSPATLSLSPGERATLSCSASSSVSYMHWYQQKPGQAPRLLIYDTSKLASGIPARFSGSGSGTDFTLTISSLEPEDFAVYYCQQWSKHPLTFGQGTKVEIKR
modifications: Artificial antibody
B2: DCBPR2002-4(DBCO-vc-seco-DUBA): DCBPR2002-4Az reacted with DBCO-vc-seco DUBA; ADC, DAR ~4 (conjugate)
VH: B1 VH
VL: B1 VL
B3: DCBPR2002-2(DBCO-vc-MMAE)-2(DBCO-vc-seco-DUBA): dual-payload ADC: DCBPR2002-2(DBCO-vc-MMAE)-2Az reacted with DBCO-vc-seco DUBA; DAR ~4 (conjugate)
VH: B1 VH
VL: B1 VL

Columns and labels:
mesothelin protein [1] = molecular target: T1, mesothelin protein (Homo sapiens, UniProt Q13421); test: Affinity measurements and kinetic analysis using BIAcore (SPR), mesothelin immobilised; format: binding
T1 sequence (Q13421 with tags, fused parts or gaps): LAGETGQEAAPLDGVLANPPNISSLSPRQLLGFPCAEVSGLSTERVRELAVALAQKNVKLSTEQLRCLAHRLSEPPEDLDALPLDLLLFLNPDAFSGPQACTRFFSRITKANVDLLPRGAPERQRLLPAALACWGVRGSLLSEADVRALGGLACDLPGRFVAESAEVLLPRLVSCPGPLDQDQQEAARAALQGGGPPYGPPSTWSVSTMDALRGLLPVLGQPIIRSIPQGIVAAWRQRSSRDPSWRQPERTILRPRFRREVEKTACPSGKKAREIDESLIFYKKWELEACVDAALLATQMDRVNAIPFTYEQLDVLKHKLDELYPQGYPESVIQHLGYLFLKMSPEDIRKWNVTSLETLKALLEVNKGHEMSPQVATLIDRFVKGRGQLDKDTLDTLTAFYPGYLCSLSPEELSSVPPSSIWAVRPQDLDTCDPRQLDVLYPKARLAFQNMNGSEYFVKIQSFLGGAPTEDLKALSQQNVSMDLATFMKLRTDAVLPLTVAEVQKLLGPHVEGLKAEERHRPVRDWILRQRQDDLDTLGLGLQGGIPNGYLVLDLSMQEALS
Description: To know the biding kinetics difference among individual antibodies, surface plasmon resonance (SPR) measurement with a BIAcore T200 (Cytiva Inc.) was used as previously described (Karlsson & Falt, (1997) J. Immunol Methods 200:121-133). Carboxymethylated dextran biosensor chips (CM5, Cytiva Inc.) were activated with N-ethyl-N′-(3-dimethylaminopropyl)-carbodiimide hydrochloride (EDC) and N-hydroxysuccinimide (NHS) according to the supplier's instructions. Mesothelin protein was diluted with 10 mM sodium acetate, pH 4.0, into 5 μg/ml before injection at a flow rate of 10 μL/minute to achieve approximately 1500 response units (RU) of coupled protein followed by the injection of 1M ethanolamine to block unreacted groups. For kinetics measurements, two-fold serial dilutions of anti-mesothelin mAb (0.3125 nM to 40 nM) were injected in HBS-EP+ Biacore running buffer provided by the manufacturer (Cytiva Inc.) at 25 degree C. at a flow rate of 30 μL/min, and binding responses on the mesothelin protein were corrected by subtraction of responses on a blank flow cell. Association rates (kon or ka) and dissociation rates (koff or kd) were calculated using a simple one-to-one Langmuir binding model with separate fittings of kon and koff was used. (Cytiva.™. Biacore Insight Evaluation Software).

[2] = tested on: KLM-1 human pancreatic cancer xenograft; test: KLM-1 xenograft model (Example 44); format: in vivo; details: 30 mg/kg IV once weekly for 3 weeks
Description: Each of the formulations was administered intravenously (IV) to the mice once weekly for three weeks.
(§1) Five mice were housed in each cage.
When the average tumor volume had reached 200 mm^3, the mice were randomLy divided into 4 groups (N=6 per group). Each of the vehicle, DCBPR2002-4(DBCO-vc-MMAE) (15 and 30 mg/kg), and naked antibody (DCBPR2002, 30 mg/kg) was intravenously administered once weekly for 3 weeks.
(§2) Differences are considered significant at *P<0.05.

mesothelin protein [3] = molecular target: T1, mesothelin protein; test: Binding kinetics of anti-mesothelin ADCs by surface plasma resonance (Biacore T100); details: analyte MSLN; for Ka: antibody/ADC captured on CM5 chip via anti-human IgG-Fc; for dissociation rate constant (koff): antibody/ADC captured on CM5 chip
Description: The kinetic constant of the anti-mesothelin ADCs interaction against mesothelin was determined by surface plasma resonance (Biacore® T100, Biacore, Inc., Piscataway, NJ). The flow cell of the CM5 wafer was fixed with approximately 10,000 reaction units (RU) of anti-human IgG-Fc (Biacore®) in 10 mM glycine pH 5.0 at 10 μL/min for 600 seconds. 10 μg/mL of anti-mesothelin antibody and anti-mesothelin ADCs diluted in TBS at 10 μl/min were captured on CM5 chips. Four concentrations (from 3.7 to 100 nM) of human mesothelin recombinant protein and zero concentration (flow buffer) in 100 μl/min binding were recorded in PBS containing 1 mM CaCl2 for 3 minutes. The dissociation of the complex was measured for 10 minutes. The water surface was regenerated by injecting 3 M MgCl2 and 3 mM EGTA at 10 μl/min for 60 seconds. The curve obtained after subtracting the reference and buffer signals was taken into the 1:1 Langmuir binding model using the Biacore® T100 evaluation software (Biacore®).

[4] = tested on: Ovarian carcinoma cell line OVCAR-3 (MSLN+); test: In vitro cytotoxicity, CellTiter-Glo luminescent cell viability assay, OVCAR-3; format: cell-based, human; details: OVCAR-3, 72 hours treatment; read-out: Relative IC50 (nM of toxic payload/ADCs)
Description: (§3) The KLM-1 & OVCAR-3 cell lines were maintained in an atmosphere of 5% CO2 in a humidified 37° C. incubator. The day before treatment, cells were collected and seeded into 96-well plates (4,000 cells per well). On the second day, cells were treated with 3-fold serial dilution concentration of toxic payloads and ADCs. Each treatment was performed in eight triplicate data points. After the treatment of 72 hours, cell viability was assessed by CellTiter-Glo® kit (Promega) according to the manufacturer's instruction. At the end of the incubation, luminescence was measured using a SpectraMax i3x Multi Mode Detection Platform (Molecular Devices). Compound cytotoxicity was evaluated in comparison to cells treated with 0.05% PBS (ADCs) or 0.05% DMSO (toxic payload). IC50 values were calculated by fitting viability data with a four-parameter logistic equation using GraphPad prism 5.0 software.

[5] = tested on: KLM-1 human pancreatic cancer xenograft; test: KLM-1 xenograft model (Example 45); details: 15 mg/kg IV once weekly for 3 weeks
Description: Formulations respectively comprising test article DCBPR2002-4(DBCO-vc-MMAE)(15 mg/kg), test article DCBPR2002-4(DBCO-vc-seco-DUBA)(15 mg/kg), test article DCBPR2002-4(DBCO-s-DM1) (15 mg/kg), test article DCBPR2002-2(DBCO-vc-MMAE)-2(DBCO-vc-seco-DUBA) (15 mg/kg), test article DCBPR2002-2(DBCO-vc-MMAE)-2(DBCO-s-DM1) (15 mg/kg), test article DCBPR2002-2(DBCO-vc-seco-DUBA)-2(DBCO-s-DM1) (15 mg/kg), and a corresponding vehicle were formulated by diluting the stock with a 25 mM sodium citrate buffer (pH6.5). Each of the formulations was administered intravenously (IV) once weekly for three weeks.
The KLM-1 cells were maintained in vitro as a monolayer culture in RPMI-1640 medium supplemented with 10% fetal bovine serum at 37° C. in an atmosphere of 5% CO2 in air. The tumor cells were routinely sub-cultured twice weekly by trypsin-EDTA treatment. The cells growing in an exponential growth phase were harvested and counted for tumor inoculation.
Male NOD SCID mice at age of 6-7 weeks were purchased from BioLasco Taiwan Co., LTD. and quarantined for one week. Five mice were housed in each cage. All animals were hosted in the animal facility with a 12-h light/12-h dark cycle at 19-25° C. Animals had free access to rodent pellet foods and water ad libitum.
KLM-1 cells were subcutaneously (SC) implanted (4×10^6 cells in 1:1 PBS/matrigel mixture at 0.1 mL per mouse) into the right flank of male NOD SCID mice. When the average tumor volume had reached 300 mm^3, the mice were randomly divided into 7 groups (N=6 per group). Each of the vehicle, DCBPR2002-4(DBCO-vc-MMAE), DCBPR2002-4(DBCO-vc-seco-DUBA), DCBPR2002-4(DBCO-s-DM1), DCBPR2002-2(DBCO-vc-MMAE)-2(DBCO-vc-seco-DUBA), DCBPR2002-2(DBCO-vc-MMAE)-2(DBCO-s-DM1), DCBPR2002-2(DBCO-vc-seco-DUBA)-2(DBCO-s-DM1) was intravenously administered as 15 mg/kg once weekly for 3 weeks.
The tumor volumes, body weights, mortality, and signs of overt toxicity were monitored and recorded three times weekly for 28 days. Tumor volumes were measured three times per week using calipers and calculated according to the formula: Tumor Volume=(w2×l)/2, where w=width and l=length in diameter (mm) of the tumor. […] One-way ANOVA followed by Dunnett's test was applied for comparison between the vehicle and test article-treated groups. Differences are considered significant at *P<0.05. Animals were weighed three times weekly until the completion of the study.

[6] = tested on: OVCAR-3 human ovarian cancer xenograft; test: OVCAR-3 xenograft model (Example 46); format: in vivo, female NOD SCID mice; details: 15 mg/kg IV once weekly for 3 weeks
Description: as §1
OVCAR-3 cells were subcutaneously (SC) implanted (1×10^7 cells in 1:1 PBS/matrigel mixture at 0.2 mL per mouse) into the right flank of female NOD SCID mice. […] Each of the vehicle, DCBPR2002-4(DBCO-vc-MMAE) (15 and 30 mg/kg), and DCBPR2002-4(DBCO-vc-seco-DUBA) (15 mg/kg) was intravenously administered once weekly for 3 weeks.
as §2

[7] = tested on: Pancreatic cancer cell line KLM-1 (MSLN+); test: In vitro cytotoxicity, CellTiter-Glo luminescent cell viability assay, KLM-1; format: cell-based, human; details: KLM-1, 72 hours treatment; read-out: Relative IC50 (nM of toxic payload/ADCs)
Description: as §3, with “Pancreatic cancer cell line KLM-1 was respectively grown in RPMI 1640 Medium (ATCC modification) medium supplemented with 10% fetal bovine serum. Ovarian carcinoma cell line OVCAR-3 was grown in RPMI 1640 Medium (ATCC modification) medium supplemented with 20% fetal bovine serum. The KLM-1” for “The KLM-1”

Molecule	Rmax(RU) (mesothelin protein [1]; BIAcore T200)	ka (mesothelin protein [1]; BIAcore T200, 25 degree C, 1:1 Langmuir model) [M⁻¹ s⁻¹]	kd (mesothelin protein [1]; BIAcore T200, 25 degree C, 1:1 Langmuir model, listed as HuSS1) [s⁻¹]	kd (mesothelin protein [1]; BIAcore T200, 25 degree C, 1:1 Langmuir model, listed as HuSS1mAb) [s⁻¹]	body weight changes [2]	tumor growth / anti-tumor activity ([2]; TGI≥58% considered significant)	Rmax(RU) (mesothelin protein [3])	Ka (mesothelin protein [3])	dissociation rate constant (koff) (mesothelin protein [3])	IC50 [4] [nM]	body weight changes [5]	ranking of efficacy potency [5]	body weight changes [6]	IC50 [7] [nM]
B1	180.6	4.493e+06	1.124e-05	1.124e-05	No body weight loss was observed	did not show significant anti-tumor activity	58.1	5.091E+6	8.593E−5					
B2										23.9	No body weight loss was observed	DCBPR2002-4(DBCO-vc-seco-DUBA)=DCBPR2002-2(DBCO-vc-MMAE)-2(DBCO-vc-seco-DUBA)=DCBPR2002-2(DBCO-vc-seco-DUBA)-2(DBCO-s-DM1)>DCBPR2002-4(DBCO-vc-MMAE)>DCBPR2002-2(DBCO-vc-MMAE)-2(DBCO-s-DM1)>DCBPR2002-4(DBCO-s-DM1)	No body weight loss was observed	19.4
B3							50.98	4.752E+6	1.218E−4	43.3	No body weight loss was observed	DCBPR2002-4(DBCO-vc-seco-DUBA)=DCBPR2002-2(DBCO-vc-MMAE)-2(DBCO-vc-seco-DUBA)=DCBPR2002-2(DBCO-vc-seco-DUBA)-2(DBCO-s-DM1)>DCBPR2002-4(DBCO-vc-MMAE)>DCBPR2002-2(DBCO-vc-MMAE)-2(DBCO-s-DM1)>DCBPR2002-4(DBCO-s-DM1)		46
